T1: EsCas13d, nuclease-dead (Eubacterium siraeum, UniProt B0MS50, R295A;H300A;R849A;H854A)
T1 sequence: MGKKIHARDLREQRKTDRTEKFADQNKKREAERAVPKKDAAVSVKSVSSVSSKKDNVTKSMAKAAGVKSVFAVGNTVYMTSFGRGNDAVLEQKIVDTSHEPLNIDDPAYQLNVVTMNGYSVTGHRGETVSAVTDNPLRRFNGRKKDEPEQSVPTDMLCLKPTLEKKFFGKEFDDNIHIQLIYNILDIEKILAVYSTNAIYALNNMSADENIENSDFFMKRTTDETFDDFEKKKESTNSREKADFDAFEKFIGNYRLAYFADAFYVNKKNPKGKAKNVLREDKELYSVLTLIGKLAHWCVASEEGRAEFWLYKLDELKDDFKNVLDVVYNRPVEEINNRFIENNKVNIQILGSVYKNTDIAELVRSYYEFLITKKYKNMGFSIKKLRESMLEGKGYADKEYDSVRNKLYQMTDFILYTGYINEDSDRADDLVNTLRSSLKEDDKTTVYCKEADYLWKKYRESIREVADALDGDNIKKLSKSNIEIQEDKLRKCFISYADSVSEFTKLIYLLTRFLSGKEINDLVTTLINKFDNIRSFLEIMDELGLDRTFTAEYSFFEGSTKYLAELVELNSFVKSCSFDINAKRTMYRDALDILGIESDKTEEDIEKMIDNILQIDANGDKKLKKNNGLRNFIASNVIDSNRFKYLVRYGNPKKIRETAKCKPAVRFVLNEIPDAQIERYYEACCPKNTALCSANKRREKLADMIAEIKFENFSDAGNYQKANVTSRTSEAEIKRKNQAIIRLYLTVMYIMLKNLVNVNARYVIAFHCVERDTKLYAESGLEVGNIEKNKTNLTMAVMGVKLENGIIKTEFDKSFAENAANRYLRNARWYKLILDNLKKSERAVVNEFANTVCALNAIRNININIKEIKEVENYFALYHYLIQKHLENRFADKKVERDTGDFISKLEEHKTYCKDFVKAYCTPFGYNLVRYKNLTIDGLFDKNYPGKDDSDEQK


Target: T1, EsCas13d, nuclease-dead
Experiment: crRNA (strand 1, pre-loaded); Mg2+; 40 mM Tris-HCl pH 7.5, 150 mM NaCl, 6 mM MgCl2, 1 mM DTT, 0.1% Tween-20, 0.2 mg/ml BSA; 25 C; 10 min per concentration, then washed
Settings: tags: His6-TwinStrep-SUMO cleaved; N-terminal SNAP kept (SNAP-Surface 488); label: 3' end held by stalled T7 RNA polymerase

| Binder | Kd |
| --- | --- |
| target 1 insG 3' of 18,insA 3' of 5 (mixed) RNA 1: CACCCGUGCAAAAAUGCAGGGGUCUAAAACUGAGCGGAUAACCUCUCUAUGG RNA 2: GGGAAUGGAUCCACAUCUACGAAUUCGUACCAUAGGAGAGGUUAUCCGACUCACCGAGAUCGGAAGAGCACACGU | 36 ± 4 nM |
| target 1 C6U,C21A (mixed) RNA 1: CACCCGUGCAAAAAUGCAGGGGUCUAAAACUGAGCGGAUAACCUCUCUAUGG RNA 2: GGGAAUGGAUCCACAUCUACGAAUUCGUACAAUAGAGAGGUUAUCUGCUCACCGAGAUCGGAAGAGCACACGU | 26.2 ± 1.6 nM |
| target 2 MT 5'PFS UAC 3'PFS UCA (mixed) RNA 1: CACCCGUGCAAAAUUGCAGGGGUCUAAAACCUUCUCCAAAUUGUUUCAUCCU RNA 2: GGGAAUGGAUCCACAUCUACGAAUUCUACAGGAUGAAACAAUUUGGAGAAGUCAAGAUCGGAAGAGCACACGU | 6.3 ± 1 nM |
| target 2 MT 5'PFS GGG 3'PFS UGU (mixed) RNA 1: CACCCGUGCAAAAUUGCAGGGGUCUAAAACCUUCUCCAAAUUGUUUCAUCCU RNA 2: GGGAAUGGAUCCACAUCUACGAAUUCGGGAGGAUGAAACAAUUUGGAGAAGUGUAGAUCGGAAGAGCACACGU | 12.2 ± 0.8 nM |
| target 2 MT 5'PFS UGC 3'PFS CAU (mixed) RNA 1: CACCCGUGCAAAAUUGCAGGGGUCUAAAACCUUCUCCAAAUUGUUUCAUCCU RNA 2: GGGAAUGGAUCCACAUCUACGAAUUCUGCAGGAUGAAACAAUUUGGAGAAGCAUAGAUCGGAAGAGCACACGU | 25 ± 8 nM |
| target 2 MT 5'PFS UGC 3'PFS UAU (mixed) RNA 1: CACCCGUGCAAAAUUGCAGGGGUCUAAAACCUUCUCCAAAUUGUUUCAUCCU RNA 2: GGGAAUGGAUCCACAUCUACGAAUUCUGCAGGAUGAAACAAUUUGGAGAAGUAUAGAUCGGAAGAGCACACGU | 14.3 ± 2.6 nM |
| target 2 MT 5'PFS UUA 3'PFS ACG (mixed) RNA 1: CACCCGUGCAAAAUUGCAGGGGUCUAAAACCUUCUCCAAAUUGUUUCAUCCU RNA 2: GGGAAUGGAUCCACAUCUACGAAUUCUUAAGGAUGAAACAAUUUGGAGAAGACGAGAUCGGAAGAGCACACGU | 81 ± 19 nM |
| target 2 MT 5'PFS AGG 3'PFS CAA (mixed) RNA 1: CACCCGUGCAAAAUUGCAGGGGUCUAAAACCUUCUCCAAAUUGUUUCAUCCU RNA 2: GGGAAUGGAUCCACAUCUACGAAUUCAGGAGGAUGAAACAAUUUGGAGAAGCAAAGAUCGGAAGAGCACACGU | 4.1 ± 0.7 nM |
| target 2 MT 5'PFS UUA 3'PFS ACA (mixed) RNA 1: CACCCGUGCAAAAUUGCAGGGGUCUAAAACCUUCUCCAAAUUGUUUCAUCCU RNA 2: GGGAAUGGAUCCACAUCUACGAAUUCUUAAGGAUGAAACAAUUUGGAGAAGACAAGAUCGGAAGAGCACACGU | 37 ± 7 nM |
| target 2 MT 5'PFS GAU 3'PFS CCG (mixed) RNA 1: CACCCGUGCAAAAUUGCAGGGGUCUAAAACCUUCUCCAAAUUGUUUCAUCCU RNA 2: GGGAAUGGAUCCACAUCUACGAAUUCGAUAGGAUGAAACAAUUUGGAGAAGCCGAGAUCGGAAGAGCACACGU | 14.2 ± 1.4 nM |
| target 2 MT 5'PFS UGA 3'PFS CGA (mixed) RNA 1: CACCCGUGCAAAAUUGCAGGGGUCUAAAACCUUCUCCAAAUUGUUUCAUCCU RNA 2: GGGAAUGGAUCCACAUCUACGAAUUCUGAAGGAUGAAACAAUUUGGAGAAGCGAAGAUCGGAAGAGCACACGU | 7.2 ± 0.8 nM |
| target 2 MT 5'PFS CAC 3'PFS UUG (mixed) RNA 1: CACCCGUGCAAAAUUGCAGGGGUCUAAAACCUUCUCCAAAUUGUUUCAUCCU RNA 2: GGGAAUGGAUCCACAUCUACGAAUUCCACAGGAUGAAACAAUUUGGAGAAGUUGAGAUCGGAAGAGCACACGU | 2.8 ± 0.5 nM |
| target 2 MT 5'PFS AAA 3'PFS CUG (mixed) RNA 1: CACCCGUGCAAAAUUGCAGGGGUCUAAAACCUUCUCCAAAUUGUUUCAUCCU RNA 2: GGGAAUGGAUCCACAUCUACGAAUUCAAAAGGAUGAAACAAUUUGGAGAAGCUGAGAUCGGAAGAGCACACGU | 5.5 ± 1.1 nM |
| target 2 MT 5'PFS UAC 3'PFS UCC (mixed) RNA 1: CACCCGUGCAAAAUUGCAGGGGUCUAAAACCUUCUCCAAAUUGUUUCAUCCU RNA 2: GGGAAUGGAUCCACAUCUACGAAUUCUACAGGAUGAAACAAUUUGGAGAAGUCCAGAUCGGAAGAGCACACGU | 15.1 ± 2.8 nM |
| target 2 MT 5'PFS GUA 3'PFS CAC (mixed) RNA 1: CACCCGUGCAAAAUUGCAGGGGUCUAAAACCUUCUCCAAAUUGUUUCAUCCU RNA 2: GGGAAUGGAUCCACAUCUACGAAUUCGUAAGGAUGAAACAAUUUGGAGAAGCACAGAUCGGAAGAGCACACGU | 9.6 ± 1.2 nM |
| target 2 MT 5'PFS UGC 3'PFS UAC (mixed) RNA 1: CACCCGUGCAAAAUUGCAGGGGUCUAAAACCUUCUCCAAAUUGUUUCAUCCU RNA 2: GGGAAUGGAUCCACAUCUACGAAUUCUGCAGGAUGAAACAAUUUGGAGAAGUACAGAUCGGAAGAGCACACGU | 21 ± 4 nM |
| target 2 MT 5'PFS UGG 3'PFS CUU (mixed) RNA 1: CACCCGUGCAAAAUUGCAGGGGUCUAAAACCUUCUCCAAAUUGUUUCAUCCU RNA 2: GGGAAUGGAUCCACAUCUACGAAUUCUGGAGGAUGAAACAAUUUGGAGAAGCUUAGAUCGGAAGAGCACACGU | 7 ± 0.7 nM |
| target 2 MT 5'PFS GGG 3'PFS UGC (mixed) RNA 1: CACCCGUGCAAAAUUGCAGGGGUCUAAAACCUUCUCCAAAUUGUUUCAUCCU RNA 2: GGGAAUGGAUCCACAUCUACGAAUUCGGGAGGAUGAAACAAUUUGGAGAAGUGCAGAUCGGAAGAGCACACGU | 12.8 ± 1.4 nM |
| target 2 MT 5'PFS UGC 3'PFS UAA (mixed) RNA 1: CACCCGUGCAAAAUUGCAGGGGUCUAAAACCUUCUCCAAAUUGUUUCAUCCU RNA 2: GGGAAUGGAUCCACAUCUACGAAUUCUGCAGGAUGAAACAAUUUGGAGAAGUAAAGAUCGGAAGAGCACACGU | 17 ± 6 nM |
| target 2 MT 5'PFS UGC 3'PFS CAG (mixed) RNA 1: CACCCGUGCAAAAUUGCAGGGGUCUAAAACCUUCUCCAAAUUGUUUCAUCCU RNA 2: GGGAAUGGAUCCACAUCUACGAAUUCUGCAGGAUGAAACAAUUUGGAGAAGCAGAGAUCGGAAGAGCACACGU | 16.2 ± 2.2 nM |
| target 2 MT 5'PFS UGG 3'PFS CUA (mixed) RNA 1: CACCCGUGCAAAAUUGCAGGGGUCUAAAACCUUCUCCAAAUUGUUUCAUCCU RNA 2: GGGAAUGGAUCCACAUCUACGAAUUCUGGAGGAUGAAACAAUUUGGAGAAGCUAAGAUCGGAAGAGCACACGU | 7 ± 1.3 nM |
| target 2 MT 5'PFS UAU 3'PFS UAA (mixed) RNA 1: CACCCGUGCAAAAUUGCAGGGGUCUAAAACCUUCUCCAAAUUGUUUCAUCCU RNA 2: GGGAAUGGAUCCACAUCUACGAAUUCUAUAGGAUGAAACAAUUUGGAGAAGUAAAGAUCGGAAGAGCACACGU | 18.1 ± 3 nM |
| target 2 MT 5'PFS UAU 3'PFS UAC (mixed) RNA 1: CACCCGUGCAAAAUUGCAGGGGUCUAAAACCUUCUCCAAAUUGUUUCAUCCU RNA 2: GGGAAUGGAUCCACAUCUACGAAUUCUAUAGGAUGAAACAAUUUGGAGAAGUACAGAUCGGAAGAGCACACGU | 26 ± 6 nM |
| target 2 MT 5'PFS UGC 3'PFS CAA (mixed) RNA 1: CACCCGUGCAAAAUUGCAGGGGUCUAAAACCUUCUCCAAAUUGUUUCAUCCU RNA 2: GGGAAUGGAUCCACAUCUACGAAUUCUGCAGGAUGAAACAAUUUGGAGAAGCAAAGAUCGGAAGAGCACACGU | 13 ± 2.3 nM |
| target 2 MT 5'PFS UUA 3'PFS ACC (mixed) RNA 1: CACCCGUGCAAAAUUGCAGGGGUCUAAAACCUUCUCCAAAUUGUUUCAUCCU RNA 2: GGGAAUGGAUCCACAUCUACGAAUUCUUAAGGAUGAAACAAUUUGGAGAAGACCAGAUCGGAAGAGCACACGU | 45 ± 14 nM |
| target 2 MT 5'PFS CGC 3'PFS UGU (mixed) RNA 1: CACCCGUGCAAAAUUGCAGGGGUCUAAAACCUUCUCCAAAUUGUUUCAUCCU RNA 2: GGGAAUGGAUCCACAUCUACGAAUUCCGCAGGAUGAAACAAUUUGGAGAAGUGUAGAUCGGAAGAGCACACGU | 5.6 ± 0.5 nM |
| target 2 MT 5'PFS GAG 3'PFS AGG (mixed) RNA 1: CACCCGUGCAAAAUUGCAGGGGUCUAAAACCUUCUCCAAAUUGUUUCAUCCU RNA 2: GGGAAUGGAUCCACAUCUACGAAUUCGAGAGGAUGAAACAAUUUGGAGAAGAGGAGAUCGGAAGAGCACACGU | 5.5 ± 0.4 nM |
| target 2 MT 5'PFS UGA 3'PFS CGC (mixed) RNA 1: CACCCGUGCAAAAUUGCAGGGGUCUAAAACCUUCUCCAAAUUGUUUCAUCCU RNA 2: GGGAAUGGAUCCACAUCUACGAAUUCUGAAGGAUGAAACAAUUUGGAGAAGCGCAGAUCGGAAGAGCACACGU | 8.5 ± 1.1 nM |
